Data reported in the supplement of paper PMC7125110.
± gives the standard error. For some assays here: This sample holds only a part of the variants without activity.

B1: glmS ribozyme (parent)
chain: AUAAAAGCGCCAGAACUACAGAAAUGUAGUUGACGAGGAGGAGGUUUAUCGAAUUUUCGGCGGAUGCCUCCAAA

Key:
Conditions in all cases: with glucosamine-6-phosphate
glucosamine-6-phosphate [1] = variants of: B1; assay: kcat; higher = faster cleavage; RNA array
Method in brief: (§1)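 A hybridised Cy3 probe tracked barcoded ribozyme variants, transcribed in situ by E. coli RNA polymerase on sequenced MiSeq chips, at 37 °C. The variants received 40 μM to 10 mM glucosamine-6-phosphate in HEPES/KCl/Mg(OAc)2 buffer. kobs came from decay fits and kcat and KM from weighted Michaelis–Menten fits.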

glucosamine-6-phosphate [2] = variants of: B1; assay: KM; higher = weaker cofactor use; RNA array
Method in brief: as §1

glucosamine-6-phosphate [3] = variants of: B1; assay: self-cleavage kobs at 40 uM GlcN6P; higher = faster cleavage; RNA array
Method in brief: as §1

glucosamine-6-phosphate [4] = variants of: B1; assay: self-cleavage kobs at 160 uM GlcN6P; higher = faster cleavage; RNA array
Method in brief: as §1

glucosamine-6-phosphate [5] = variants of: B1; assay: self-cleavage kobs at 640 uM GlcN6P; higher = faster cleavage; RNA array
Method in brief: as §1

glucosamine-6-phosphate [6] = variants of: B1; assay: self-cleavage kobs at 2500 uM GlcN6P; higher = faster cleavage; RNA array
Method in brief: as §1

glucosamine-6-phosphate [7] = variants of: B1; assay: self-cleavage kobs at 10000 uM GlcN6P; higher = faster cleavage; RNA array
Method in brief: as §1

| Variant | kcat (glucosamine-6-phosphate [1]) | KM (glucosamine-6-phosphate [2]) | self-cleavage kobs at 40 uM GlcN6P (glucosamine-6-phosphate [3]) | self-cleavage kobs at 160 uM GlcN6P (glucosamine-6-phosphate [4]) | self-cleavage kobs at 640 uM GlcN6P (glucosamine-6-phosphate [5]) | self-cleavage kobs at 2500 uM GlcN6P (glucosamine-6-phosphate [6]) | self-cleavage kobs at 10000 uM GlcN6P (glucosamine-6-phosphate [7]) |
| --- | --- | --- | --- | --- | --- | --- | --- |
| A53C U54C | 0.00131 ± 0.00043 s⁻¹ | 1870 ± 890 µM | 2.24e-05 ± 9.7e-06 s⁻¹ | 9.33e-05 ± 1.9e-05 s⁻¹ | 0.000355 ± 6.3e-05 s⁻¹ | 0.0011 ± 0.00018 s⁻¹ | 0.000805 ± 0.00023 s⁻¹ |
| A15C C58A | 0.000185 ± 2.6e-05 s⁻¹ | 2130 ± 720 µM |  |  | 5.17e-05 ± 1.2e-05 s⁻¹ | 8.54e-05 ± 1.6e-05 s⁻¹ | 0.00016 ± 2.1e-05 s⁻¹ |
| G40C A53C | 0.000789 ± 2e-05 s⁻¹ | 2240 ± 110 µM |  | 5.46e-05 ± 1.9e-05 s⁻¹ | 0.000176 ± 2.5e-05 s⁻¹ | 0.0004 ± 6.6e-05 s⁻¹ | 0.000652 ± 7.2e-05 s⁻¹ |
| G63C C67G | < 1e-05 s⁻¹ |  | < 1e-05 s⁻¹ |  |  |  |  |
| A52G G59A | < 1e-05 s⁻¹ |  | < 1e-05 s⁻¹ |  |  |  |  |
| A14U G38C | < 1e-05 s⁻¹ |  | < 1e-05 s⁻¹ |  | < 1e-05 s⁻¹ | < 1e-05 s⁻¹ | < 1e-05 s⁻¹ |
| G40U U47G | 0.000765 ± 0.00012 s⁻¹ | 908 ± 250 µM | 4.04e-05 ± 1e-05 s⁻¹ | 0.000115 ± 2.6e-05 s⁻¹ | 0.000262 ± 5.2e-05 s⁻¹ | 0.000699 ± 0.00013 s⁻¹ | 0.000681 ± 0.00011 s⁻¹ |
| U56A U69A | 9.71e-05 ± 1.6e-05 s⁻¹ |  | 4e-05 ± 1.1e-05 s⁻¹ | 5e-05 ± 1.3e-05 s⁻¹ | 8.46e-05 ± 1.2e-05 s⁻¹ | 0.000155 ± 2.3e-05 s⁻¹ | 8.66e-05 ± 1.1e-05 s⁻¹ |
| G37A G62A | < 1e-05 s⁻¹ |  | < 1e-05 s⁻¹ |  | < 1e-05 s⁻¹ |  | < 1e-05 s⁻¹ |
| G41A U47C | 7.04e-05 ± 3.2e-07 s⁻¹ | 1800 ± 30 µM |  |  |  | 4.08e-05 ± 1e-05 s⁻¹ | 5.98e-05 ± 8.4e-06 s⁻¹ |
| C10U G63A | < 1e-05 s⁻¹ |  |  |  | < 1e-05 s⁻¹ | < 1e-05 s⁻¹ |  |
| G44C C67U | 0.00192 ± 0.00015 s⁻¹ | 1700 ± 200 µM | 5.1e-05 ± 1.3e-05 s⁻¹ | 0.000153 ± 3.2e-05 s⁻¹ | 0.000532 ± 0.00011 s⁻¹ | 0.00109 ± 0.00024 s⁻¹ | 0.00168 ± 0.0003 s⁻¹ |
| U65A C67G C71G | 2.24e-05 ± 6.2e-06 s⁻¹ |  |  |  |  |  |  |
| A42U U46A | 0.000165 ± 3.2e-05 s⁻¹ | 4410 ± 1900 µM |  |  |  | 7.32e-05 ± 1.7e-05 s⁻¹ | 0.000112 ± 1.7e-05 s⁻¹ |
| U31G G43A | 1.25e-05 ± 3.3e-06 s⁻¹ |  |  |  |  |  |  |
| A48U U69G | 5.22e-05 ± 2.1e-05 s⁻¹ |  |  |  |  | 7.45e-05 ± 1.7e-05 s⁻¹ |  |
| C11A U69C | 6.61e-05 ± 1e-05 s⁻¹ |  |  |  | 7.71e-05 ± 3.5e-05 s⁻¹ | 7.67e-05 ± 1.5e-05 s⁻¹ | 4.97e-05 ± 1.6e-05 s⁻¹ |

| Variant | kcat (glucosamine-6-phosphate [1]) | KM (glucosamine-6-phosphate [2]) | self-cleavage kobs at 40 uM GlcN6P (glucosamine-6-phosphate [3]) | self-cleavage kobs at 160 uM GlcN6P (glucosamine-6-phosphate [4]) | self-cleavage kobs at 640 uM GlcN6P (glucosamine-6-phosphate [5]) | self-cleavage kobs at 2500 uM GlcN6P (glucosamine-6-phosphate [6]) | self-cleavage kobs at 10000 uM GlcN6P (glucosamine-6-phosphate [7]) |
| --- | --- | --- | --- | --- | --- | --- | --- |
| C58A U65G | 5.13e-05 ± 1.3e-05 s⁻¹ |  |  |  |  | 4.93e-05 ± 1.3e-05 s⁻¹ | 4.32e-05 ± 1.3e-05 s⁻¹ |
| A39U G40A C67A | 0.000278 ± 2.3e-05 s⁻¹ | 760 ± 190 µM |  |  | 0.000124 ± 3.1e-05 s⁻¹ | 0.000245 ± 6.5e-05 s⁻¹ | 0.000247 ± 5e-05 s⁻¹ |
| G51A C67U | < 1e-05 s⁻¹ |  | < 1e-05 s⁻¹ |  |  |  |  |
| A12U U47G U57C | 0.000776 ± 0.00016 s⁻¹ | 8650 ± 3200 µM |  |  |  | 0.000172 ± 4.9e-05 s⁻¹ | 0.000417 ± 6.9e-05 s⁻¹ |
| U57C C68U | 6e-05 ± 5.6e-07 s⁻¹ | 1210 ± 64 µM |  |  |  | 3.96e-05 ± 1.4e-05 s⁻¹ | 5.36e-05 ± 6e-06 s⁻¹ |
| A6G G43C C68G | 0.000785 ± 0.00019 s⁻¹ | 1000 ± 470 µM | 3.71e-05 ± 1.7e-05 s⁻¹ | 9.17e-05 ± 2.6e-05 s⁻¹ | 0.000423 ± 8.3e-05 s⁻¹ | 0.000399 ± 0.00011 s⁻¹ | 0.000819 ± 0.00015 s⁻¹ |
| G29U U47G | 0.000866 ± 0.00021 s⁻¹ | 1600 ± 640 µM |  | 0.00011 ± 2.1e-05 s⁻¹ | 0.000215 ± 3.4e-05 s⁻¹ | 0.000515 ± 0.00015 s⁻¹ | 0.000787 ± 0.00012 s⁻¹ |
| A39C G40C | 0.000145 ± 1.6e-06 s⁻¹ | 1590 ± 47 µM |  |  | 4.2e-05 ± 9e-06 s⁻¹ | 8.75e-05 ± 1.8e-05 s⁻¹ | 0.000126 ± 1.5e-05 s⁻¹ |
| A15C U47G | 0.000994 ± 5.2e-05 s⁻¹ | 1270 ± 120 µM | 3.18e-05 ± 7.5e-06 s⁻¹ | 0.000121 ± 2e-05 s⁻¹ | 0.000312 ± 3.6e-05 s⁻¹ | 0.000675 ± 8.1e-05 s⁻¹ | 0.000889 ± 9.5e-05 s⁻¹ |
| A6U G66U | < 1e-05 s⁻¹ | 1280 ± 630 µM |  |  |  |  |  |
| A15U A33C | 5.35e-05 ± 2.5e-06 s⁻¹ | 813 ± 280 µM | < 1e-05 s⁻¹ |  |  | 4.34e-05 ± 1.3e-05 s⁻¹ | 4.91e-05 ± 6e-06 s⁻¹ |
| U49G U69G | 6.03e-05 ± 2.8e-05 s⁻¹ |  |  |  | 9.69e-05 ± 3.4e-05 s⁻¹ | 9.67e-05 ± 2.8e-05 s⁻¹ |  |
| U30G A33C | 4.15e-05 ± 6e-07 s⁻¹ | 2230 ± 140 µM |  |  |  |  | 3.4e-05 ± 8.1e-06 s⁻¹ |
| A14G G43U U46G | 3.09e-05 ± 3.5e-06 s⁻¹ | 1610 ± 590 µM | < 1e-05 s⁻¹ |  |  |  |  |
| U55G G66A | 0.0134 ± 0.004 s⁻¹ | 1790 ± 770 µM | 0.000461 ± 7.7e-05 s⁻¹ | 0.000877 ± 0.00021 s⁻¹ | 0.00303 ± 0.00072 s⁻¹ | 0.00661 ± 0.0022 s⁻¹ | 0.0124 ± 0.002 s⁻¹ |
| G37A G66A | 0.00157 ± 0.00017 s⁻¹ | 4290 ± 740 µM | 1.72e-05 ± 8.5e-06 s⁻¹ | 6.39e-05 ± 2e-05 s⁻¹ | 0.0002 ± 5.4e-05 s⁻¹ | 0.000527 ± 0.0001 s⁻¹ | 0.00114 ± 0.00018 s⁻¹ |
| A52C U54G G63A | 1.25e-05 ± 2.6e-06 s⁻¹ |  |  |  |  | < 1e-05 s⁻¹ | < 1e-05 s⁻¹ |
